Measured values as given in patent US20190161555A1 (ALLIGATOR BIOSCIENCE, published 2019).

T1: Human OX40 (R&D Systems, 3388-OX) (human, UniProt P43489 29-216)
T1 construct: bought; also called OX40-Fc; Human OX40 (R&D systems, #3358_OX)
T1 sequence (looked up): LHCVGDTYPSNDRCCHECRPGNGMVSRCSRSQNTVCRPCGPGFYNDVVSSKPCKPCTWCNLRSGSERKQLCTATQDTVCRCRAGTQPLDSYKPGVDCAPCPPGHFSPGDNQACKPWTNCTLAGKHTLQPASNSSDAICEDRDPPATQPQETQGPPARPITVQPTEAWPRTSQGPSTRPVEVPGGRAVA

T2: 5T4-Fc (human, UniProt Q13641 32-355, limits assumed)
T2 construct: obtained from Peter L. Stern, University of Manchester; also called h5T4-Fc; recombinant 5T4
T2 sequence (looked up): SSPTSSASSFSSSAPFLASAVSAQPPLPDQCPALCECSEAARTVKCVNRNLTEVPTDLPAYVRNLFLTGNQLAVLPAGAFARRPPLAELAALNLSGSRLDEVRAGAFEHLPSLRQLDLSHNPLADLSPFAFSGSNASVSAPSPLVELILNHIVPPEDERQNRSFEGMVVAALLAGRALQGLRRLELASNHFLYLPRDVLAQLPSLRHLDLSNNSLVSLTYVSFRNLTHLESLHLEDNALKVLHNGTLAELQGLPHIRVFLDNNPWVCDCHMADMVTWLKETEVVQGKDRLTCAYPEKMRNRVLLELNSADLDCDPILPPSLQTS

T3: 5T4 (immobilised for SPR) (UniProt Q13641 32-355, limits assumed, biotinylated on the MASS-1 platform)
T3 construct: also called biotinylated 5T4
T3 sequence (looked up): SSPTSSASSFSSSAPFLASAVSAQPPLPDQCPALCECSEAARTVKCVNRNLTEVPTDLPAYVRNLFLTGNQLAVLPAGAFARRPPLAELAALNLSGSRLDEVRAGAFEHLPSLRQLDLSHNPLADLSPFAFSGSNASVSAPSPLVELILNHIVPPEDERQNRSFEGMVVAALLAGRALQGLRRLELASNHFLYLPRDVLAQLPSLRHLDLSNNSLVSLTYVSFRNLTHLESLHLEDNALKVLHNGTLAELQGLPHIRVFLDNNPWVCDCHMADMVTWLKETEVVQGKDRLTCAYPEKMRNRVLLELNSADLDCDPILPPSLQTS

T4: mouse 5T4 (mouse, UniProt Q9Z0L0 32-426)
T4 construct: whole, on cells; also called murine 5T4
T4 sequence (looked up): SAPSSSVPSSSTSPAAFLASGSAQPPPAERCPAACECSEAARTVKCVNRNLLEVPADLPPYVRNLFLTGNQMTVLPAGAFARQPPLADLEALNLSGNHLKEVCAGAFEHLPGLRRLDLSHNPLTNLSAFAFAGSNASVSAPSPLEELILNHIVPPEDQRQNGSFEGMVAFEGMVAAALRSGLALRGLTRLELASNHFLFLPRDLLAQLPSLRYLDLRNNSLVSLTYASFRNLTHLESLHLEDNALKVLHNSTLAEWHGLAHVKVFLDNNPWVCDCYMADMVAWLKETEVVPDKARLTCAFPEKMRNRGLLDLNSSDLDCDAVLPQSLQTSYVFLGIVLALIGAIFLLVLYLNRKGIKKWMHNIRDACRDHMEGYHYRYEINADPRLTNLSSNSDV

T5: human 5T4 on transfected cells (human, UniProt Q13641 32-420)
T5 construct: whole, on cells; for B16 and A9 cells only a 5T4 construct is named; also called 5T4-transfected B16 cells; B16-5T4
T5 sequence (looked up): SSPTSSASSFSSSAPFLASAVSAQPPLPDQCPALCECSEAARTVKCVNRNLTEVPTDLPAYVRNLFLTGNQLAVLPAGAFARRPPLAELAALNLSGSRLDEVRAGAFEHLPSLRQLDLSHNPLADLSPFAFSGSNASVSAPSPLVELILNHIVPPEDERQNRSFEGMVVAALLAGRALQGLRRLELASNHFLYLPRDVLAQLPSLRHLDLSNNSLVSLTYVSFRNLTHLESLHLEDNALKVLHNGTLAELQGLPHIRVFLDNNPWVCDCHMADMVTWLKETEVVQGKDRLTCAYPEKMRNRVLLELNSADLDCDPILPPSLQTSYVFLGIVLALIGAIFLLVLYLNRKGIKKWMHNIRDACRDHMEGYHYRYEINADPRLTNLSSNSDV


Experiments:
[1] = target: T1, Human OX40 (R&D Systems, 3388-OX); assay: dual ELISA: OX40-Fc coated, detection with biotinylated 5T4-Fc and streptavidin-HRP, luminescence
Experimental: A dual ELISA was used to detect simultaneous binding of the two targets by the bispecific antibodies. ELISA plates were coated with OX40-Fc (R&D systems, #3388-OX, 0.5 μg/ml) over night at 4° C. followed by blocking with PBST+2% bovine serum albumin (BSA) for 1 h at room temperature (RT). […] Biotinylated 5T4-Fc (0.5 μg/ml), followed by HRP-labelled streptavidin (Pierce #21126) were used for detection. Super signal ELISA Pico Chemiluminescent Substrate (Thermo Scientific, #37069) was used as substrate and luminescence was measured using FLUOstar Optima.

5T4-Fc = target: T2, 5T4-Fc; assay: ELISA, plates coated with 5T4-Fc
Experimental: ELISA was performed using a standard protocol. Plates (#655074, Greiner Bio-One GmbH, Germany) were pre-coated with 0.5 μg/ml 5T4-Fc (obtained from Peter L. Stern, University of Manchester) overnight. 5T4 antibodies were diluted from 6 to 1.5×10⁻³ μg/ml in 1:4 dilutions and added in duplicates of 50 μl to each well. Binding was detected with rabbit anti-h kappa L-chain-HRP (P0129, Dako Denmark) and the ELISA was developed with SuperSignal ELISA PICO Chemiluminescent substrate (Thermo Scientific Pierce, Rockford, Ill. USA) for 2-10 minutes and read in an automated microplate based multi-detection reader (FLUOstar OPTIMA, Netherlands).

[2] = target: T3, 5T4 (immobilised for SPR); assay: SPR Biacore 3000, 5T4 amine-coupled, mAb injected, 1:1 Langmuir
Experimental: Binding kinetics of the 5T4-specific mAbs have been studied using two different SPR-based platforms, the Biacore 3000 (GE Healthcare) and the MASS-1 platform (Sierra Sensors). Briefly, 5T4 was captured at the sensor chip surface either via direct amine coupling (Biacore platform) or using a streptavidin coated chip and biotinylated 5T4 (MASS-1 platform). The different 5T4-specific mAbs were then injected over the chip in increasing concentrations and the association and dissociation rates studied in real time. A 1:1 Langmuir model was used for curve fitting.

mouse 5T4 = target: T4, mouse 5T4; assay: flow cytometry, mouse 5T4-transfected cells
[3] = target: T5, human 5T4 on transfected cells; assay: flow cytometry, CHO cells stably transfected with human 5T4
Experimental: Analysis of 5T4 mAb binding with flow cytometry was performed using 5T4-transfected cell lines and as negative control, mock transfected cells. Three different transfected cell lines used were used for this study; B16, A9 and CHO, transfected either with a 5T4 construct or with an empty vector control construct. Cells were stained with 5T4 antibodies diluted in FACS buffer (PBS, 0.5% BSA and 0.02% NaN₃). […] Samples were analysed either on a FACSCalibur or a FACSverse (BD Biosciences, Heidelberg, Germany) and mean fluorescence intensity (MFI) determined.
In a new attempt to calculate EC50 with flow cytometry a 5T4 mAb dose response experiment was performed using CHO cells stably transfected with human 5T4.

Row | EC50 (5T4-Fc) | Kd [2] | koff [2] | kon [2] | binding result (mouse 5T4) | EC50 [3] | EC50 normalized to reference 1628 [3] | Binder | binding result [1]
1 | 0.48 nM | 0.2 nM | 0.0001 s⁻¹ | 500000 M⁻¹ s⁻¹ | no binding | 0.81 nM | 1.6 ratio to 1628 | 1210/1211 (antibody, IgG1, V domains shown, 5T4 antibody) VH: not shown VL: DIQMTQSPSSLSASVGDRVTITCRASQSISSYLNWYQQKPGKAPKLLIYAASSLQSGVPSRFSGSGSGTDFTLTISSLQPEDFATYYCQQTYGYLHTFGQGTKLEIK | no binding (tested: about 80 nM (log[conc ab] 1.9))
2 | 0.64 nM | 2.3 nM | 0.00028 s⁻¹ | 130000 M⁻¹ s⁻¹ | no binding | 0.51 nM | 1 ratio to 1628 | 1206/1207 (antibody, V domains shown, 5T4 antibody) VH: EVQLLESGGGLVQPGGSLRLSCAASGFTFSGSSMSWVRQAPGKGLEWVSSIYYSGSGTYYADSVKGRFTISRDNSKNTLYLQMNSLRAEDTAVYYCARYGRNVHPYNLDYWGQGTLVTVSS VL: DIQMTQSPSSLSASVGDRVTITCRASQSISSYLNWYQQKPGKAPKLLIYAASSLQSGVPSRFSGSGSGTDFTLTISSLQPEDFATYYCQQGYYYLPTFGQGTKLEIK | 
